According to the supplement of paper PMC10201428:
± gives the standard deviation of the averaged measurements.

How the values were obtained:
[1] = test system: VchCAST RNA-guided transposition machinery (E. coli BL21(DE3) host, lacZ target); test: relative integration efficiency (T-LR orientation) vs wild-type transposon end (log2 (normalized fold change)); transposon end mutated: right end (5 bp flank + 75 bp right end); higher = more efficient transposition
Outline: (§1)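 Barcoded pools of 1549 left-end or 1849 right-end transposon variants were cloned into a pUC57 mini-transposon donor. Each pool was co-transformed with a T7-driven effector plasmid (CRISPR array, tniQ-cas8-cas7-cas6, tnsA-tnsB-tnsC) into E. coli BL21(DE3) and plated with 0.1 mM IPTG at 37°C for 18 h. Input plasmids and genomic integration junctions were PCR-amplified and Illumina-sequenced, with two biological output replicates and four wild-type barcodes as reference. Relative integration efficiency is output/input barcode abundance fold change, normalised to wild-type barcodes and log-transformed.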

[2] = test system: VchCAST RNA-guided transposition machinery (E. coli BL21(DE3) host, lacZ target); test: relative integration efficiency (T-RL orientation) vs wild-type transposon end (log2 (normalized fold change)); transposon end mutated: right end (5 bp flank + 75 bp right end); higher = more efficient transposition
Outline: as §1

ACATTTGTTGATACACCCATAAATTGATAATTACACCCATAAATTGATAATTATCACAACCATAAAGTGATATTTACTCTGATCATAGTCAGACCAACATTGCTACGACCCGTATTCGCACCGACAC
relative integration efficiency (log2) [1]: -0.01 ± 0.22 | relative integration efficiency (log2) [2]: -0.445 ± 0.034

ACATTTGTTGATACACCCATAAATTGATAATTACACCCATAAATTGATAATTATCACAACCATAAGTTGATATTTTCTCTGATCATAGTCAGACCAACATTGCTACGACCCGTATTCGCACCGACAC
relative integration efficiency (log2) [1]: -0.206 ± 0.42 | relative integration efficiency (log2) [2]: -0.361 ± 0.17

ACATTTGTTGATACACCCATAAATTGATAATTACACCCATAAATTGATAATTATCACAACCATATATTGATATCTCCTCTGATCATAGTCAGACCAACATTGCTACGACCCGTATTCGCACCGACAC
relative integration efficiency (log2) [1]: -0.271 ± 0.04 | relative integration efficiency (log2) [2]: -0.596 ± 0.21

ACATTTGTTGATACACCCATAAATTGATAATTACACCCATAAATTGATAATTATCACACCCATAAATTGATAATTACTCTGATCATAGTCAGACCAACATTGCTACGACCCGTATTCGCACCGACAC
relative integration efficiency (log2) [1]: -0.257 ± 0.33 | relative integration efficiency (log2) [2]: -0.6 ± 0.15

ACATTTGTTGATACACCCATAAATTGATAATTACACCCATAAATTGATAATTATCACACCCATAAATTGATATTGCCTCTGATCATAGTCAGACCAACATTGCTACGACCCGTATTCGCACCGACAC
relative integration efficiency (log2) [1]: -0.0387 ± 0.31 | relative integration efficiency (log2) [2]: -0.116 ± 0.036

ACATTTGTTGATACACCCATAAATTGATAATTACACCCATAAATTGATAATTATCAGTGGGTATTTAACTATAACGCTCTGATCATAGTCAGACCAACATTGCTACGACCCGTATTCGCACCGACAC
relative integration efficiency (log2) [1]: 2.54 ± 0.063 | relative integration efficiency (log2) [2]: -0.394 ± 0.0092

ACATTTGTTGATACACCCATAAATTGATAATTACACCCATAAATTGATATTGCTCACAACCATAAAATGATAATTACTCTGATCATAGTCAGACCAACATTGCTACGACCCGTATTCGCACCGACAC
relative integration efficiency (log2) [1]: -0.204 ± 0.23 | relative integration efficiency (log2) [2]: -0.918 ± 0.33

ACATTTGTTGATACACCCATAAATTGATAATTACACCCATAAATTGATATTGCTCACAACCATAAAGTGATATTTACTCTGATCATAGTCAGACCAACATTGCTACGACCCGTATTCGCACCGACAC
relative integration efficiency (log2) [1]: -0.114 ± 0.24 | relative integration efficiency (log2) [2]: -0.813 ± 0.18

ACATTTGTTGATACACCCATAAATTGATAATTACACCCATAAATTGATATTGCTCACAACCATAAGTTGATATTTTCTCTGATCATAGTCAGACCAACATTGCTACGACCCGTATTCGCACCGACAC
relative integration efficiency (log2) [1]: 0.079 ± 0.1 | relative integration efficiency (log2) [2]: -0.802 ± 0.24

ACATTTGTTGATACACCCATAAATTGATAATTACACCCATAAATTGATATTGCTCACAACCATATATTGATATCTCCTCTGATCATAGTCAGACCAACATTGCTACGACCCGTATTCGCACCGACAC
relative integration efficiency (log2) [1]: 0.128 ± 0.24 | relative integration efficiency (log2) [2]: -1.02 ± 0.26

ACATTTGTTGATACACCCATAAATTGATAATTACACCCATAAATTGATATTGCTCACACCCATAAATTGATAATTACTCTGATCATAGTCAGACCAACATTGCTACGACCCGTATTCGCACCGACAC
relative integration efficiency (log2) [1]: 0.319 ± 0.23 | relative integration efficiency (log2) [2]: -0.735 ± 0.34

ACATTTGTTGATACACCCATAAATTGATAATTACACCCATAAATTGATATTGCTCACACCCATAAATTGATATTGCCTCTGATCATAGTCAGACCAACATTGCTACGACCCGTATTCGCACCGACAC
relative integration efficiency (log2) [1]: 0.393 ± 0.28 | relative integration efficiency (log2) [2]: -0.538 ± 0.15

ACATTTGTTGATACACCCATAAATTGATAATTACACCCATAAATTGATATTGCTCAGTGGGTATTTAACTATAACGCTCTGATCATAGTCAGACCAACATTGCTACGACCCGTATTCGCACCGACAC
relative integration efficiency (log2) [1]: 2.63 ± 0.18 | relative integration efficiency (log2) [2]: -1.23 ± 0.25

ACATTTGTTGATACACCCATAAATTGATATTGCCAACCATAAAATGATAATTATCACAACCATAAAATGATAATTACTCTGATCATAGTCAGACCAACATTGCTACGACCCGTATTCGCACCGACAC
relative integration efficiency (log2) [1]: -0.058 ± 0.3 | relative integration efficiency (log2) [2]: -0.123 ± 0.11

ACATTTGTTGATACACCCATAAATTGATATTGCCAACCATAAAATGATAATTATCACAACCATAAAGTGATATTTACTCTGATCATAGTCAGACCAACATTGCTACGACCCGTATTCGCACCGACAC
relative integration efficiency (log2) [1]: -0.327 ± 0.1 | relative integration efficiency (log2) [2]: -0.59 ± 0.12

ACATTTGTTGATACACCCATAAATTGATATTGCCAACCATAAAATGATAATTATCACAACCATAAGTTGATATTTTCTCTGATCATAGTCAGACCAACATTGCTACGACCCGTATTCGCACCGACAC
relative integration efficiency (log2) [1]: -0.175 ± 0.71 | relative integration efficiency (log2) [2]: -0.46 ± 0.23

ACATTTGTTGATACACCCATAAATTGATATTGCCAACCATAAAATGATAATTATCACAACCATATATTGATATCTCCTCTGATCATAGTCAGACCAACATTGCTACGACCCGTATTCGCACCGACAC
relative integration efficiency (log2) [1]: -0.207 ± 0.002 | relative integration efficiency (log2) [2]: -0.961 ± 0.18

ACATTTGTTGATACACCCATAAATTGATATTGCCAACCATAAAATGATAATTATCACACCCATAAATTGATAATTACTCTGATCATAGTCAGACCAACATTGCTACGACCCGTATTCGCACCGACAC
relative integration efficiency (log2) [1]: -0.568 ± 0.82 | relative integration efficiency (log2) [2]: -0.642 ± 0.2

ACATTTGTTGATACACCCATAAATTGATATTGCCAACCATAAAATGATAATTATCACACCCATAAATTGATATTGCCTCTGATCATAGTCAGACCAACATTGCTACGACCCGTATTCGCACCGACAC
relative integration efficiency (log2) [1]: -0.203 ± 0.43 | relative integration efficiency (log2) [2]: -0.863 ± 0.071

ACATTTGTTGATACACCCATAAATTGATATTGCCAACCATAAAATGATAATTATCAGTGGGTATTTAACTATAACGCTCTGATCATAGTCAGACCAACATTGCTACGACCCGTATTCGCACCGACAC
relative integration efficiency (log2) [1]: 2.28 ± 0.096 | relative integration efficiency (log2) [2]: -1.21 ± 0.35

ACATTTGTTGATACACCCATAAATTGATATTGCCAACCATAAAGTGATATTTATCACAACCATAAAATGATAATTACTCTGATCATAGTCAGACCAACATTGCTACGACCCGTATTCGCACCGACAC
relative integration efficiency (log2) [1]: -0.362 ± 0.13 | relative integration efficiency (log2) [2]: -0.499 ± 0.21

ACATTTGTTGATACACCCATAAATTGATATTGCCAACCATAAAGTGATATTTATCACAACCATAAAGTGATATTTACTCTGATCATAGTCAGACCAACATTGCTACGACCCGTATTCGCACCGACAC
relative integration efficiency (log2) [1]: -0.426 ± 0.4 | relative integration efficiency (log2) [2]: -0.684 ± 0.13

ACATTTGTTGATACACCCATAAATTGATATTGCCAACCATAAAGTGATATTTATCACAACCATAAGTTGATATTTTCTCTGATCATAGTCAGACCAACATTGCTACGACCCGTATTCGCACCGACAC
relative integration efficiency (log2) [1]: -0.0145 ± 0.0084 | relative integration efficiency (log2) [2]: -0.617 ± 0.14

ACATTTGTTGATACACCCATAAATTGATATTGCCAACCATAAAGTGATATTTATCACAACCATATATTGATATCTCCTCTGATCATAGTCAGACCAACATTGCTACGACCCGTATTCGCACCGACAC
relative integration efficiency (log2) [1]: 0.117 ± 0.34 | relative integration efficiency (log2) [2]: -0.78 ± 0.17

ACATTTGTTGATACACCCATAAATTGATATTGCCAACCATAAAGTGATATTTATCACACCCATAAATTGATAATTACTCTGATCATAGTCAGACCAACATTGCTACGACCCGTATTCGCACCGACAC
relative integration efficiency (log2) [1]: -0.215 ± 0.15 | relative integration efficiency (log2) [2]: -0.649 ± 0.14

ACATTTGTTGATACACCCATAAATTGATATTGCCAACCATAAAGTGATATTTATCACACCCATAAATTGATATTGCCTCTGATCATAGTCAGACCAACATTGCTACGACCCGTATTCGCACCGACAC
relative integration efficiency (log2) [1]: -0.415 ± 0.17 | relative integration efficiency (log2) [2]: -0.74 ± 0.11

ACATTTGTTGATACACCCATAAATTGATATTGCCAACCATAAAGTGATATTTATCAGTGGGTATTTAACTATAACGCTCTGATCATAGTCAGACCAACATTGCTACGACCCGTATTCGCACCGACAC
relative integration efficiency (log2) [1]: 2.341 ± 0.0029 | relative integration efficiency (log2) [2]: -1.12 ± 0.16

ACATTTGTTGATACACCCATAAATTGATATTGCCAACCATAAGTTGATATTTTTCACAACCATAAAATGATAATTACTCTGATCATAGTCAGACCAACATTGCTACGACCCGTATTCGCACCGACAC
relative integration efficiency (log2) [1]: -0.0638 ± 0.3 | relative integration efficiency (log2) [2]: -0.413 ± 0.23

ACATTTGTTGATACACCCATAAATTGATATTGCCAACCATAAGTTGATATTTTTCACAACCATAAAGTGATATTTACTCTGATCATAGTCAGACCAACATTGCTACGACCCGTATTCGCACCGACAC
relative integration efficiency (log2) [1]: -0.457 ± 0.31 | relative integration efficiency (log2) [2]: -0.583 ± 0.25

ACATTTGTTGATACACCCATAAATTGATATTGCCAACCATAAGTTGATATTTTTCACAACCATAAGTTGATATTTTCTCTGATCATAGTCAGACCAACATTGCTACGACCCGTATTCGCACCGACAC
relative integration efficiency (log2) [1]: -0.197 ± 0.3 | relative integration efficiency (log2) [2]: -0.695 ± 0.095

ACATTTGTTGATACACCCATAAATTGATATTGCCAACCATAAGTTGATATTTTTCACAACCATATATTGATATCTCCTCTGATCATAGTCAGACCAACATTGCTACGACCCGTATTCGCACCGACAC
relative integration efficiency (log2) [1]: 0.0942 ± 0.34 | relative integration efficiency (log2) [2]: -0.899 ± 0.17

ACATTTGTTGATACACCCATAAATTGATATTGCCAACCATAAGTTGATATTTTTCACACCCATAAATTGATAATTACTCTGATCATAGTCAGACCAACATTGCTACGACCCGTATTCGCACCGACAC
relative integration efficiency (log2) [1]: 0.0375 ± 0.27 | relative integration efficiency (log2) [2]: -0.7 ± 0.21

ACATTTGTTGATACACCCATAAATTGATATTGCCAACCATAAGTTGATATTTTTCACACCCATAAATTGATATTGCCTCTGATCATAGTCAGACCAACATTGCTACGACCCGTATTCGCACCGACAC
relative integration efficiency (log2) [1]: -0.37 ± 0.1 | relative integration efficiency (log2) [2]: -0.773 ± 0.11

ACATTTGTTGATACACCCATAAATTGATATTGCCAACCATAAGTTGATATTTTTCAGTGGGTATTTAACTATAACGCTCTGATCATAGTCAGACCAACATTGCTACGACCCGTATTCGCACCGACAC
relative integration efficiency (log2) [1]: 2.3 ± 0.092 | relative integration efficiency (log2) [2]: -1.31 ± 0.4

ACATTTGTTGATACACCCATAAATTGATATTGCCAACCATATATTGATATCTCTCACAACCATAAAATGATAATTACTCTGATCATAGTCAGACCAACATTGCTACGACCCGTATTCGCACCGACAC
relative integration efficiency (log2) [1]: -0.955 ± 0.52 | relative integration efficiency (log2) [2]: -1.22 ± 0.23
